# Data: paper PMC10955559
# B1: AeGluc (Aedes aegypti) (protein)
# chain: LDWWEHGNFYQVYPRSFKDSDGDGIGDLDGVTEKLKYLKDIGMDGVWLSPIFSSPMADFGYDISNFREIQTEYGDLDAFQRLSDKCKQLGLHLILDFVPNHTSDQHEYFKKSVQKDETYKDFYVWHPGVHGPNNTKVPPSNWISVFRGSSWEWNEERQEFYLHQFLKEQPDLNYRNPAVVEEMKNVLRYWLDRGVSGFRIDAVPYLFESDIIDGRYRNEPESRTTDDPENPAYLVHTQTMDQPETYDMIYQWRAVLDEYSKTDNRTRIMMTEGYTSLPKIIEFFGNATANGAQIPFNFEVISNVKKNSTGADFATYVKRWLDAKPANRRSNWVLGNHDNNRLGSRLGENKIDLYNIALQTLPDIAVTYYGEEIGMLDQWIPWNETVDPAACRSDEASYSAYSRDPARTPMQWDSGKNAGFSKAAKTWLPVADNYKTLNVKIQDRARKSHLKIFKKLTKYRKRQILTEGDIDIKVSGENLLVYKRKVDKVGYVVVALNFGTEPVALGLSSLFDRADQRMQVVVSSNRVSTPDNVWVDVDNYVLIGESGIVLQYLWGKNPIVS
# B2: AnGluc (Anopheles gambiae) (protein)
# chain: HRPLPIRKAHKFDWWERGNFYQIYPRSFKDSDGDGIGDLKGITQTIDYLKTIGIDGVWLSPIFKSPMNDFGYDISDFYAIQEEYGTMEDFEELAAKCASIGLKLILDFVPNHSSDEHEHFRLSEEGIEPYKDYYIWHSGVLDANGTRHPPSNWISVFRGSAWQWSDKRQQYYLHQFQKKQPDLNYRNPALVEEMKNVMRFWLNKGIAGFRIDALPYLFESEEVDGHYRDEPLSGQATDDPDNPAYLTHTETKDQPETYDMVHQWRQVVDEYTARDNFTRIILTEAYTAVQNMTRFYGTPAAPGAQIPFNFQLITLLTVNSTGRDFVNAVQSWTRAMPSGAIANWVLGNHDNSRIASRLGVARADLYNIALQTLPGIAVTYYGEEIAMVDQWISWNDTIDPAACNADPATYELYSRDPVRTPFQWSNGTNAGFSNASRTWLPVADGYRELNVAAQLAAPRSHLKTFMQLTAYRKRRLLAEGNFVLRTVGRDLVMYKRSVPGVGYVVVALNFGPEPATLPVASQFPGTGEHWLKVIASSLQAQPQAGTWINTRLYKLAPDSGIVLERLTGRNDLMT
# B3: CxGluc (Culex quinquefasciatus) (protein)
# chain: LQWWEHGNFYQVYPRSFKDSDGNGIGDLDGVTEKLQYLKDVGMDGIWLSPIFASPMADFGYDISDFYNIQGEYGDLAAFERLSAKCKELGLRLILDFVPNHTSNQHEYFKKSVQKEDPYTNYYVWHPGVTNEDGTKSPPSNWISVFRGSAWEWNEDRQEYYLHQFLKEQPDLNYRDPALVEEMKNVLKFWLNKGVSGFRIDAVPYLFESVEVENRYVDEPLSRATDDAENPAYLIHNQTMDQPETYDMIYQWRAVLDEFTAKDNQTRIMMTEGYTSIPNVMKFFGEGEQNGAQIPFNFQMISNLRKTSTAADFARYANLWLDNLPAGRRSNWVLGNHDNNRIGSRLGEAKIDLYNIALQTLPDIAVTYYGEEIGMVDQPIPFNETVDPAGLRAGPDDYTLYSRDPARTPMQWNSDKNAGFSSADKTWLPVATNYKQLNVKAQDAAQKSHLKLFKRLTTYRKRQILTHGDLDLRTTDSNLVLYKRKVDKVGYVVVVLNFSDEPQSLAAIKQQFPGADDRLQVVASSKLVTIKDNKWINVADTELPGESAIVLQKLWGPNPVVVYEA
# Columns and labels:
# Assay in all cases: purified protein
# Conditions in all cases: 100 mM sodium acetate, pH 5.5, 37 °C, 30 min, no added calcium
# purified protein [1] = substrate: OC[C@H]1O[C@@](CO)(O[C@H]2O[C@H](CO)[C@@H](O)[C@H](O)[C@H]2O)[C@@H](O)[C@@H]1O; type: biochemical, Aedes aegypti
# purified protein [2] = substrate: OC[C@H]1O[C@@](CO)(O[C@H]2O[C@H](CO)[C@@H](O)[C@H](O)[C@H]2O)[C@@H](O)[C@@H]1O; type: biochemical, Anopheles gambiae
# purified protein [3] = substrate: OC[C@H]1O[C@@](CO)(O[C@H]2O[C@H](CO)[C@@H](O)[C@H](O)[C@H]2O)[C@@H](O)[C@@H]1O; type: biochemical, Culex quinquefasciatus
protein,measurement,setting,value
B1,Km,purified protein [1],47.6 ± 16.3 mM
same,Vmax,purified protein [1],740 µM/min
same,kcat,purified protein [1],805 ± 66.7 s⁻¹
same,kcat/Km,purified protein [1],16900 ± 1380 M⁻¹ s⁻¹
B2,Km,purified protein [2],20.4 ± 7.4 mM
same,Vmax,purified protein [2],740 µM/min
same,kcat,purified protein [2],815 ± 60 s⁻¹
same,kcat/Km,purified protein [2],40000 ± 2920 M⁻¹ s⁻¹
B3,Km,purified protein [3],40.1 ± 15.1 mM
same,Vmax,purified protein [3],690 µM/min
same,kcat,purified protein [3],750 ± 75 s⁻¹
same,kcat/Km,purified protein [3],18700 ± 1850 M⁻¹ s⁻¹
